According to patent US10005846 (LIFEARC, dated 2018):

T1: cynomolgus monkey TG2 (cynomolgus monkey, UniProt A0A2K5VXI8 1-687)
T1 construct: Bought recombinant protein; also called cynomogulus monkey TG2; cyano TG2
T1 sequence: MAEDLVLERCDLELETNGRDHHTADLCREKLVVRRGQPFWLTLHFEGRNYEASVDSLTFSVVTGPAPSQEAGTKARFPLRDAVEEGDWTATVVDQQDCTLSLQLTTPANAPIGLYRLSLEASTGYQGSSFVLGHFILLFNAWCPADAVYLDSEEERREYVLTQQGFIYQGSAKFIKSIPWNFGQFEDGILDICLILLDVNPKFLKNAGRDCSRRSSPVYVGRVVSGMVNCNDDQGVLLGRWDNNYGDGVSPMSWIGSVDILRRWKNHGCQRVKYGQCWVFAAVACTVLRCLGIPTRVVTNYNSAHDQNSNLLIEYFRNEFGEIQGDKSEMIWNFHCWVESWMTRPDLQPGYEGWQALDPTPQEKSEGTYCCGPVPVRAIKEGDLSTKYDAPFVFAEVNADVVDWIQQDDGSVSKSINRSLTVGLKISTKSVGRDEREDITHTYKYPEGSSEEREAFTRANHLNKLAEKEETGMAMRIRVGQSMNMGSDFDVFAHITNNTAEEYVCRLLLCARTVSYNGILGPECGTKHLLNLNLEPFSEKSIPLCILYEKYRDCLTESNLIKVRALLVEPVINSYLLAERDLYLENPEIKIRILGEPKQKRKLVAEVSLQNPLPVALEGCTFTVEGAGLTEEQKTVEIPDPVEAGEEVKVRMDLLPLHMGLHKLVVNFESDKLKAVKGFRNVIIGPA

T2: human transglutaminase type 2 (TG2) (human, UniProt P21980 1-687)
T2 construct: Recombinant full-length human TG2 (Zedira; cat; T002 in the Biacore work); Also used here for the endogenous TG2 of HepG2 lysate and HK-2 cells; also called hTG2; rhTG2
T2 sequence: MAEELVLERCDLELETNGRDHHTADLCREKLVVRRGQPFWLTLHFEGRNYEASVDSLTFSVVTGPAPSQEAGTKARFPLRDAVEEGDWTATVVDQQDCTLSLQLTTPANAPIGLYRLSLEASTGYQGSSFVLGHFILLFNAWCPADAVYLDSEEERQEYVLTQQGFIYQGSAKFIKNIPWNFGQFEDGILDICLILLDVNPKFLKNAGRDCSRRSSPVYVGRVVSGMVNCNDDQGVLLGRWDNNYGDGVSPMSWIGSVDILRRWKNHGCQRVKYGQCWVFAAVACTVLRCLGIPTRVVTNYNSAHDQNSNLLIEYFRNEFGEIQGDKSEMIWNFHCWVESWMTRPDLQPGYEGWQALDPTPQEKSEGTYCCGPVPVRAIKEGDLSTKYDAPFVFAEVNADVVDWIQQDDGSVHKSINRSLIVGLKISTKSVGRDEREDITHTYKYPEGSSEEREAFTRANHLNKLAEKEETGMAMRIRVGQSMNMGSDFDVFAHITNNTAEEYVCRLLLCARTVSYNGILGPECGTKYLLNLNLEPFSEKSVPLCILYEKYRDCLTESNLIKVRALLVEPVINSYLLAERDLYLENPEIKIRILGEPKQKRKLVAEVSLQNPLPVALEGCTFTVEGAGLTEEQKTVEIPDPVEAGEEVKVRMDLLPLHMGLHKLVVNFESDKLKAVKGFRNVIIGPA


Legend:
cynomolgus monkey TG2 [1] = molecular target: T1, cynomolgus monkey TG2; experiment: SPR (Biacore T200), antibody captured on anti-human IgG1 Fc chip, TG2 injected; calcium condition not marked in the row
Procedure: (§1) Recombinant cynomolgus monkey TG2 was obtained from Trenzyme. Surface plasmon resonance (SPR) was measured on a Biacore T200 instrument (GE Healthcare). CM5 chips (GE Healthcare cat. no.: BR-1006-68) were coated with monoclonal mouse anti-human IgG1 (Fc) (MAH) antibody (GE Healthcare cat. no.: BR-1008-39) by amine-coupling as described in the manufacturers instructions. HBS-EP+ buffer (0.01 M HEPES, 0.15 M NaCl, 3 mM EDTA, 0.05% v/v Surfactant P20) and HBS-P+ buffer (0.01 M HEPES, 0.15 M NaCl, 0.05% Surfactant P20) were purchased from GE Healthcare as 10× stocks (cat. nos.: BR-1006-69 and BR-1006-71). Calcium Chloride solution was obtained from Sigma Aldrich (cat. no.:21115).
(§2) The method employed to determine the affinity of the anti-TG2 antibodies involved the capture of the chimeric or humanised antibodies on a MAH coated CM5 chip, followed by the injection of a series of TG2 samples in running buffer. The running buffer was 1×HBS-P+ containing 1 mM CaCl_2, or 1×HBS-EP+ for calcium-free experiments. Antibody capture was carried out for a contact time of 120 seconds at a flow rate of 10 μl/min resulting in the capture of approximately 40-80 RU. TG2 was injected over the immobilised antibody at concentrations ranging from 25 nM to 400 nM with a contact time up to 600 seconds at a flow rate of 30 μl/min. Dissociation of TG2 was typically measured for up to 5400 seconds (1.5 hours). Regeneration of the chip was then performed using 3 M MgCl_2, for a contact time of 60 seconds at a flow rate of […], followed by a 300 s stabilisation period before the next sample. For each of human and cynomolgus monkey TG2, at least 5 injections at a variety of concentrations were performed in at least two separate experiments.
(§3) Kinetic data were exported from the Biacore T200 Evaluation Software and analysed using GraphPad Prism, where the association phases and dissociation phases were analysed separately using a one phase association model and one-phase exponential decay model respectively. Association rates ($kon$) were calculated for each curve individually, and dissociation rates ($koff$) values from the long dissociation phase data collected. Where $koff$ values were calculated to be $<1\times10^-5$ s^-1, values were set at 1×10^-5 for analysis, as rates slower than this could not be estimated accurately.

[2] = molecular target: T2, human transglutaminase type 2 (TG2); experiment: as above
Procedure: as §1, §2, §3

[3] = molecular target: T2, human transglutaminase type 2 (TG2); experiment: cell-based or functional assay
[4] = molecular target: T2, human transglutaminase type 2 (TG2); experiment: cell-based or functional assay; remark: listed apart in the source
[5] = molecular target: T2, human transglutaminase type 2 (TG2); experiment: anti-huTG2 ELISA of HEK293F supernatants
Procedure: Supernatants from HEK293F cells co-transfected with different combinations of humanised AB1 light chains and AB1 heavy chain vectors were assayed in an anti-human IgG ELISA to determine concentration and in an anti huTG2 ELISA. Each supernatant was assayed in triplicate and $IC50$'s determined.
HEK 293F cells were co-transfected with combinations of different humanised light chain vectors in association with different humanised heavy chain vectors. Recombinant human TG2 was used to measure antibody binding by ELISA. […] A similar approach was used to identify optimal pairs of humanized BB7 heavy and light chains, and humanised DC1 heavy and light chains.

[6] = molecular target: T2, human transglutaminase type 2 (TG2); experiment: ELISA on immobilised human TG2; r2 0.9985; EC50 95% confidence range 0.3927 to 0.4971 [panel A]
Procedure: (§4) Antibody binding to human and cynomolgus monkey TG2 was determined in an ELISA assay. Clear polystyrene "Maxisorp" 96-well plates (Nunc) were coated with 50 ng purified human or cynomogulus monkey TG2 in 50 µl 0.05 M carbonate-bicarbonate buffer pH 9.6 at 4° C. overnight. Control wells were coated with 50 µl 100 µg/ml bovine serum albumin (BSA). Plates were washed 3× with 300 µl phosphate-buffered saline pH7.4 (PBS) containing 0.1% Tween 20 (PBST) and blocked with 300 µl 3% w/v Marvel skimmed milk in PBS for 1 hour at room temperature. After 3× wash with PBST, 50 µl protein-A purified chimeric or humanised anti-TG2 antibodies or human IgG1 kappa […] control antibody or CUB7402 (Abcam) were serially diluted 4-fold from a top concentration of 50 nM in PBS, and added to the plate in duplicate. […] After 3× washes with PBST, the plates were developed with 50 µl TMB substrate (Sigma) for 5 min at room temperature before stopping the reaction with 25 µl 0.5M H2SO4 and reading absorbance at 450 nm in a microtiter plate reader (BioTek EL808). Dose response curves were analysed and EC50 values and other statistical parameters determined using a 4-parameter logistical fit of the data (GraphPad Prism).

cynomolgus monkey TG2 [7] = molecular target: T1, cynomolgus monkey TG2; experiment: cell-based or functional assay
cynomolgus monkey TG2 [8] = molecular target: T1, cynomolgus monkey TG2; experiment: ELISA on immobilised cynomolgus monkey TG2; r2 0.9993; EC50 95% confidence range 0.3887 to 0.4489 [panel A]
Procedure: as §4

[9] = molecular target: T2, human transglutaminase type 2 (TG2); experiment: cell-based or functional assay; remark: listed apart in the source

Row | Kd (cynomolgus monkey TG2 [1]) | koff (cynomolgus monkey TG2 [1]) | kon (cynomolgus monkey TG2 [1]) | Kd [2] | koff [2] | kon [2] | binding result [5] | Binder | other results
1 | 0.24 nM | 3.4e-05 s⁻¹ | 140000 M⁻¹ s⁻¹ | < 0.05 nM | < 1e-05 s⁻¹ | 190000 M⁻¹ s⁻¹ | – | hAB005 (hAB001AJ) humanised AB1 antibody (antibody, V domains shown, captured by anti-human IgG1 (Fc); also called Heavy Chain version RHA with Light Chain version RKJ) VH: EVQLLESGGGLVQPGGSLRLSCAASGFTFSSSAMSWVRQAPGKGLEWVSTISVGGGKTYYPDSVKGRFTISRDNSKNTLYLQMNSLRAEDTAVYYCAKLISLYWGQGTLVTVSS VL: DIQMTQSPSSLSASVGDRVTITCKASQDINSYLTWFQQKPGKAPKSLIYRTNRLFDGVPSRFSGSGSGTDFFLTISSLQPEDFATYYCLQYDDFPYTFGQGTKVEIK | IC50 of enzymatic inhibition, dansylated lysine incorporation into N,N-dimethylated casein; 2 batches shown [continued), panel C] [3]: 6.87 nM; IC50, extracellular TG activity of HK-2 cells, biotin cadaverine incorporation into fibronectin [4]: 71.8 nM
2 | – | – | – | – | – | – | binds | VHc/RKE (antibody, V domains shown, also called hAB001HcE) VH: EVQLVESGGGLVKPGGSLKLSCAASGFTLSSSAMSWVRQTPDRRLEWVATISVGGGKTYYPDSVKGRFTISRDNAKNTLYLQMNSLRSEDTAMYYCAKLISLYWGQGTTLTVSS VL: EIVLTQSPSSLSASVGDRVTITCKASQDINSYLTWYQQKPGKAPKLLIYRTNRLFDGVPSRFSGSGSGTDFFFTISSLQPEDFGTYYCLQYDDFPYTFGGGTKLEIK | –
3 | – | – | – | – | – | – | binds | RHA/VKc (antibody, V domains shown, also called hAB001AKc) VH: EVQLLESGGGLVQPGGSLRLSCAASGFTFSSSAMSWVRQAPGKGLEWVSTISVGGGKTYYPDSVKGRFTISRDNSKNTLYLQMNSLRAEDTAVYYCAKLISLYWGQGTLVTVSS VL: EIVLTQSPSSMYASLGERVTITCKASQDINSYLTWFQQKPGKSPKTLIYRTNRLFDGVPSRFSGSGSGQDFFLTISSLEYEDMGIYYCLQYDDFPYTFGGGTKLEIK | –
4 | – | – | – | – | – | – | binds | VHc/RKJ (antibody, V domains shown, also called hAB001HcJ) VH: EVQLVESGGGLVKPGGSLKLSCAASGFTLSSSAMSWVRQTPDRRLEWVATISVGGGKTYYPDSVKGRFTISRDNAKNTLYLQMNSLRSEDTAMYYCAKLISLYWGQGTTLTVSS VL: DIQMTQSPSSLSASVGDRVTITCKASQDINSYLTWFQQKPGKAPKSLIYRTNRLFDGVPSRFSGSGSGTDFFLTISSLQPEDFATYYCLQYDDFPYTFGQGTKVEIK | –
5 | – | – | – | – | – | – | binds | RHA/VKc1 (antibody, V domains shown, also called hAB001AKc1) VH: EVQLLESGGGLVQPGGSLRLSCAASGFTFSSSAMSWVRQAPGKGLEWVSTISVGGGKTYYPDSVKGRFTISRDNSKNTLYLQMNSLRAEDTAVYYCAKLISLYWGQGTLVTVSS VL: DIQMTQSPSSMYASLGERVTITCKASQDINSYLTWFQQKPGKSPKTLIYRTNRLFDGVPSRFSGSGSGQDFFLTISSLEYEDMGIYYCLQYDDFPYTFGGGTKLEIK | –
6 | < 0.024 nM | < 1e-05 s⁻¹ | 420000 M⁻¹ s⁻¹ | < 0.03 nM | < 1e-05 s⁻¹ | 320000 M⁻¹ s⁻¹ | – | cDC001 chimeric antibody (murine DC1 variable regions) (antibody, human IgG1, V domains shown, also called Chimeric DC1) VH: EVQLVESGGGLVKPGGSLKLSCAASGFTLSTHAMSWVRQTPEKRLEWVATISSGGRSTYYPDSVKGRFTISRDNVKNTLYLQLSSLRSEDTAVYFCARLISTYWGQGTTLTVSS VL: DITMTQSPSSIYASLGERVTITCKASQDINSYLTWFQQKPGKSPKILIYLVNRLVDGVPSRFSGSGSGQDYALTISSLEYEDMGIYYCLQYDDFPYTFGGGTKLEIK | EC50 [6]: 0.442 nM; IC50 of enzymatic inhibition, dansylated lysine incorporation into N,N-dimethylated casein [panel A] (cynomolgus monkey TG2 [7]): 5.86 nM; EC50 (cynomolgus monkey TG2 [8]): 0.418 nM; IC50 of enzymatic inhibition, dansylated lysine incorporation into N,N-dimethylated casein [continued), panel C] [9]: 0.851 nM
